{
  "source": "paper PMC4072346",
  "proteins": {"B1": {"name": "PHLPP2 (Homo sapiens) (protein)", "chain": "SHGLAEMAGQRNKLCVSALAMDSFAEGVGAVYGMFDGDRNEELPRLLQCTMADVLLEEVQQSTNDTVFMANTFLVSHRKLGMAGQKLGSSALLCYIRPDTADPASSFSLTVANVGTCQAVLCRGGKPVPLSKVFSLEQDPEEAQRVKDQKAIITEDNKVNGVTCCTRMLGCTYLYPWILPKPHISSTPLTIQDELLILGNKALWEHLSYTEAVNAVRHVQDPLAAAKKLCTLAQSYGCQDNVGAMVVYL"}, "B2": {"name": "PHLPP1 (Homo sapiens) (protein)", "chain": "PRLVLDHKTLELLNNIRCFKIDQPSTGDASGAPAVWSHGYTEASGVKNKLCVAALSVNNFCDNREALYGVFDGDRNVEVPYLLQCTMSDILAEELQKTKNEEEYMVNTFIVMQRKLGTAGQKLGGAAVLCHIKHDPVDPGGSFTLTSANVGKCQTVLCRNGKPLPLSRSYIMSCEEELKRIKQHKAIITEDGKVNGVTESTRILGYTFLHPSVVPRPHVQSVLLTPQDEFFILGSKGLWDSLSVEEAVEAVRNVPDALAAAKKLCTLAQSYGCHDSISAVVVQLSVTEDSFCCCELSAGGAVPPPSPGIFPPSVNMVIKDRPSDGLGVPSSSSGMASEISSELSTSEMSSEVGSTASDEPPPGA"}},
  "substrate": "O=[N+]([O-])c1ccc(OP(=O)(O)O)cc1",
  "assay": "purified protein",
  "format": "biochemical, Homo sapiens",
  "settings": "pH 7.5",
  "data": [
    {"protein": "B1", "values": [
      {"measurement": "Km", "value": "(1.3 ± 0.2) × 10^–3 M"},
      {"measurement": "kcat", "value": "0.37 ± 0.08", "unit": "s⁻¹"},
      {"measurement": "kcat/Km", "value": "285 ± 9", "unit": "M⁻¹ s⁻¹"}
    ]},
    {"protein": "B2", "values": [
      {"measurement": "Km", "value": "(2.1 ± 0.2) × 10^–3 M"},
      {"measurement": "kcat", "value": "0.0018 ± 0.0003", "unit": "s⁻¹"},
      {"measurement": "kcat/Km", "value": "0.9 ± 0.2", "unit": "M⁻¹ s⁻¹"}
    ]}
  ]
}
